Results from US5574007A, “Polypeptide capable of interacting with thrombin” (Asahi Kasei Kogyo Kabushiki Kaisha, priority 1990, dated 1996).

Columns and labels:
[1] = biological target: T1, thrombin-catalyzed activation of protein C (Homo sapiens, UniProt P00734); experiment: Assay of the activity to promote the thrombin-catalyzed activation of protein C (Example 1-(3), fluorogenic substrate Boc-Leu-Ser-Thr-Arg-MCA); format: biochemical, bovine; design: 3 μl of thrombin (manufactured and sold by Sigma Chemical Company, catalog No. T-6759, 20 ng/μl); purchased Sigma Chemical Company T-6759; settings: for calcium ion concentration at which the activity is highest: activation of protein C, calcium ion 0 to 5 mM; for activity to promote the thrombin-catalyzed activation of protein C (in words): purified polypeptide from COS-1, calcium ion concentrations of 0 to 5 mM; for amount of activated protein C with reaction time (in words): from D71 strain
Description: 5 μl of the supernatant of the culture of COS-1 cells is transformed by each of plasmids pSV2TMD7 and pSV2TMD8, 3 μl of thrombin (manufactured and sold by Sigma Chemical Company, catalog No. T-6759, 20 ng/μl), 5 μl of 10×Assay Buffer containing 1M NaCl, 30 mM CaCl2, 1% calf serum albumin and 0.5M tris-HCl buffer (pH 8.5) and 29.5 μl of distilled water are mixed together and allowed to stand at 37° C. for 5 minutes, followed by the addition of 7.5 μl protein C (derived from bovine, 0.2 μg/μl) to the mixture. The reaction is conducted at 37° C. for 30 minutes, and terminated by adding 6.25 μl of a stop solution (20 mM tris-HCl buffer, pH7.5, containing 100 mM NaCl, 0.3A280 anti-thrombin III and 100 μg/ml heparin).
The activity of activated protein C is measured by first adding 10 μl of Boc-Leu-Ser-Thr-Arg-MCA (manufactured and sold by Peptide Institute, The Foundation (Japan), 5 mg/ml), 5 μl of 5M CsCl and 495 μl of a substrate reaction buffer (50 mM tris-HCl buffer containing 100 mM NaCl (pH 8.5)), next allowing the reaction to proceed at 37° C. for 20 minutes, then terminating the reaction by adding 55 μl of acetic acid, and finally measuring the concentration of liberated AMC ([…]) by means of a spectrofluorometer (model RF-540, manufactured and sold by Shimadzu Corporation, Japan) at an excitation wavelength of 380 nm and an emission wavelength of 440 nm. The obtained fluorescence intensity is compared with the fluorescence intensity of a solution having a known AMC concentration to determine the amount of the liberated AMC. The value obtained by deducting from this amount the amount of AMC in the case where an aqueous solution containing no polypeptide of the present invention is added, represents the activity of the polypeptide to promote the thrombin-catalyzed activation of protein C. The activity to produce 1 nM of activated protein C per ml of reaction mixture and per minute is defined as 1 u (unit).
(§1) With respect to the polypeptide solutions (0.4 μg/ml) purified and quantitated in Example 1-(5)-(d), the activity of polypeptides to promote the thrombin-catalyzed activation of protein C is measured according to the method described in Example 1-(3). The CaCl2 concentration of 10×Assay buffer is adjusted so that the activities at calcium ion concentrations of 0 to 5 mM are determined. Also, with respect to protein C having no Gla domain (hereinafter referred to as "GDPC") which is prepared by chymotrypsin treatment according to the method of N. L. Esmon [J. Biol. Chem. Vol. 258, pp. 5548-5553 (1983)]and which is used instead of protein C, the activity measurement is carried out within the same range of calcium concentration.

[2] = biological target: T2, thrombin-catalyzed activation of GDPC (protein C having no Gla domain) (Homo sapiens, UniProt P00734); experiment: Same assay with protein C having no Gla domain (GDPC) instead of protein C; format: biochemical; settings: calcium ion concentrations of 0 to 5 mM
T2 construct: 3 μl of thrombin (manufactured and sold by Sigma Chemical Company, catalog No. T-6759, 20 ng/μl); purchased Sigma Chemical Company T-6759
Description: as §1

[3] = biological target: T1, thrombin-catalyzed activation of protein C; experiment: Activity to promote the activation of protein C (Example 9-(4)); format: biochemical; settings: peptide solution 10 nM, thrombin 15 nM, protein C 3.2 μM, 37° C., one hour
Description: With respect to the polypeptide purified in Example 9-(3), the activity to promote the activation of protein C is measured according to the following method. That is, 10 μl of a peptide solution (10 nM), 10 μl of thrombin (15 nM), 10 μl of protein C (3.2 μM), 10 μl of 10×Assay buffer [0.5M Tris HCl (pH 7.5) containing 1% BSA, 1M NaCl and 20 mM CaCl2 ] and 60 μl of distilled water are mixed together. The mixture is reacted at 37° C. for one hour, and antithrombin III and hepalin are added at final concentrations of 100 nM and lu/ml, respectively, thereby stopping the reaction. To measure the concentration of activated protein C, the concentration of AMC ([…]) liberated from a 200 μM substrate of Boc-Leu-Ser-Thr-Arg-MCA in a buffer containing 0.05M Tris HCl (pH 8.0) and 0.1M CsCl is measured at an excitation wavelength of 380 nm and a measuring wavelength of 440 nm.

[4] = biological target: T1, thrombin-catalyzed activation of protein C; experiment: Activated protein C formation against reaction time with purified polypeptide (Example 4-(6)); format: biochemical; settings: polypeptide purified from Acremonium chrysogenum strains D71 and M31 (Example 6(4))
Description: To 0.02M Tris-HCl buffer (pH 8.5) containing 0.1M NaCl, 0.5 mM CaCl2 and 10 mg/ml BSA are added 50 μg/ml protein C, 5 nM thrombin and 5 nM of each of the purified polypeptides of the present invention, and reacted at 37° C. To each of the reaction mixtures are added 300 μg/ml antithrombin III (manufactured and sold by Sigma Chemical Company, U.S.A.) and 5 mM EDTA to terminate the reaction. Then, the amount of the activated protein C produced by the reaction is determined by the method described in Example 1-(3) in which a synthetic substrate is used.

[5] = system: thrombin-catalyzed platelet aggregation; experiment: Platelet aggregation-inhibiting activity (Platelet Rich Plasma, HEMA TRACER IV); format: cell-based; settings: polypeptide purified from Acremonium chrysogenum (Example 6(4))
Description: The activity of each of the polypeptides of the present invention to inhibit the thrombin-catalyzed platelet aggregation is evaluated using platelet aggregation measuring apparatus HEMA TRACER IV (manufactured and sold by NIKO Bioscience, Inc., Japan). Measurement is carried out according to the manual attached thereto. When 40 μl of a 20 NIH unit/ml thrombin solution (manufactured and sold by SIGMA Chemical Co., U.S.A., T 6759) is added to 180 μl of a Platelet Rich Plasma (PRP) platelet solution (3×10^5 cells/μl) and incubated, the aggregation of platelets occurs. […] The aggregation of platelets is determined on the basis of the transparency, assuming the transparency of Platelet Poor Plasma (PPP) solution as 100%. The ratio of platelet aggregation is plotted against the incubation time (0 min: the time when thrombin or a mixture of thrombin and one of the polypeptides is added to the PRP solution). It is confirmed that the platelet aggregation is inhibited when one of the polypeptides of the present invention is added.

[6] = biological target: thrombin-catalyzed conversion of fibrinogen to fibrin (Homo sapiens, UniProt P00734); experiment: Anticoagulating activity: clotting time of a fibrinogen solution; format: biochemical; settings: polypeptide purified from Acremonium chrysogenum (Example 6(4))
Description: The activity of each of the polypeptides of the present invention to inhibit the thrombin-catalyzed conversion of fibrinogen to fibrin so as to inhibit blood coagulation, is determined by measuring clotting time using Coagulometer KC-10A (manufactured and sold by Heinrich Amelung A.G., Germany). Illustratively stated, to 0.05M Tris-HCl buffer (pH 7.5) containing 5 mM CaCl2 and 0.1M NaCl is added 3.0 μg of fibrinogen (Fraction I, manufactured and sold by Sigma Chemical Company, U.S.A.). To the resultant mixture is added 0 to 50 nM of each of the purified polypeptides of the present invention. Then, 10 nM thrombin is added to the mixture in such an amount that the total amount of the mixture becomes 0.4 ml, and then the coagulation time of the mixture is measured.

| Substance | calcium ion concentration at which the activity is highest [1] [mM] | activity to promote the thrombin-catalyzed activation of protein C (in words) [1] | activity in the activation of GDPC (in words) [2] | production of activated protein C [3] [pmol] | Specific activity ([1]; COS-1 culture supernatant, activity per amount of polypeptide by ELISA) [u/mg] | specific activity (in words) ([1]; deletion mutants expressed in COS-1 cells) | amount of activated protein C with reaction time (in words) ([1]; purified by DIP-thrombin column (Example 8(2))) | amount of activated protein C with reaction time (in words) ([1]; purified by anti-TM monoclonal antibody column 1 (Example 8(4))) | amount of activated protein C with reaction time (in words) ([1]; purified by anti-TM monoclonal antibody column 2 (Example 8(5))) | Activity ([1]; supernatant of culture of COS-1 cells transformed with the plasmid, 1 u = 1 nM activated protein C per ml per minute) [u/ml] | amount of activated protein C with reaction time (in words) [4] | thrombin-catalyzed platelet aggregation (in words) [5] | clotting time of fibrinogen solution against amount of polypeptide (in words) [6] |
| --- | --- | --- | --- | --- | --- | --- | --- | --- | --- | --- | --- | --- | --- |
| D123Asp: polypeptide of amino acid residues up to the 516th position of human thrombomodulin (FIG. 55), expressed from pSV2TMD1 | 0.4 to 0.5 | high activity | low activity | 18.6 | – | – | – | – | – | – | – | – | – |
| E456Asp: polypeptide of the 367th to 480th amino acid residues of human thrombomodulin, from cells transfected with pSV2TMD7 or Acremonium strain D71 | 0.4 to 0.5 | high activity | low activity | 18.3 | 5809 | same level of specific activity as that of the 115-amino acid polypeptide | increased with the lapse of the reaction time | increased with the lapse of reaction time | increased with lapse of reaction time | 1210 | increased with the lapse of reaction time | inhibited | the longer the clotting time |
